The text below walks through data of patent US20240360201A1 (BIOCYTOGEN PHARMACEUTICALS BEIJING, published 2024).

Experiment [1] deals with T1, FcγRI-Sino (human, UniProt P12314 16-288, limits assumed).
T1 construct: bought; also called CD64 Protein, Human, Recombinant (His Tag)
The experiment in a line: SPR (Biacore T200), antibody captured on protein A sensor chip, Fc receptor as analyte; analyte range 400nm-6.25nm. The text has this: (§1) The Fc receptors included FcγRIIB (FcγRIIB-Acro), FcγRIIA (FcγRIIA-H167-Acro), FcγRIIIA (FcγRIIIA-V176-Acro), FcγRIIIB (FcγRIIIB-NA1-Acro), FcγRI (FcγRI-Sino), and FcRn (FcRn-Acro).
(In general: Surface plasmon resonance follows binding to a sensor surface in real time, without labels.)

Experiment [2] addresses T1, FcγRI-Sino. The experiment in a line: SPR Biacore T200; binder captured on protein A chip, Fc receptor as analyte. As to the method:
(§2) Binding affinities of the fusion proteins PDL1-TGFbR2-3A (IgG1) (or PDL1-TGFbR2-3A-IgG1) and PDL1-TGFbR2-3A-IgG4 to human Fc receptors were measured by surface plasmon resonance (SPR) using Biacore™ T200 biosensor equipped with pre-immobilized protein A sensor chips. The Fc receptors included FcγRI-Sino, FcγRIIA-R167-Sino, FcγRIIIA-F176-Sino, FcγRIIIB-Sino, and FcγRn. A humanized CTLA4 antibody CT4-4G12-IgG1 (CT4-4G12, or 4G12; VH SEQ ID NO: 44, VL SEQ ID NO: 45) was used as a control to test binding affinity to FcγRn.

The target in another experiment is T2, FcγRIIIB-Sino (human, UniProt O75015 17-200, limits assumed).
T2 construct: bought; also called FCRIIIB-Sino; CD16b Protein, Human, Recombinant (NA1 allotypes, His Tag)
T2 sequence (O75015 other isoform, or with tags, fused parts or gaps limits assumed): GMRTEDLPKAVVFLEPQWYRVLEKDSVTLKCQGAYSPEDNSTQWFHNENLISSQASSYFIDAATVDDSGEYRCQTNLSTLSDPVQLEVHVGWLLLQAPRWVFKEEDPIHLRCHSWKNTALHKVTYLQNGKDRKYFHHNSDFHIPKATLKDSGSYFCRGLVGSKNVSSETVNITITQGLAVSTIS
Described as above. As to the method:
as §2

Another experiment addresses T3, FcγRIIA-R167-Sino (human, UniProt P12318 34-218, limits assumed).
T3 construct: bought; Arg at 167; also called FCRIIA-R167-Sino; CD32A Protein, Human, Recombinant (167 Arg, His Tag)
T3 sequence (looked up): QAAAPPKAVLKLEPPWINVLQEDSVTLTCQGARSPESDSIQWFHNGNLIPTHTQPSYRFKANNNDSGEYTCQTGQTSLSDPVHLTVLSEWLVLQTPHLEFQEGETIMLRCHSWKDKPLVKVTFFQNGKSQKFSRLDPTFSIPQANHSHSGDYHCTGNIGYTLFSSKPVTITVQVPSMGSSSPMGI
The description is as above. As to the method: as §2

Experiment [3] has as its target T4, FcRn (human, UniProt P55899 24-297; P61769 21-119).
T4 construct: bought; also called FcγRn; FcRn-Acro
The experiment in a line: SPR (Biacore T200), antibody captured on protein A sensor chip, FcRn-Acro as analyte; analyte range 1000nm-15.625nm.
Text: as §1

A further experiment has as its target T5, FcγRIIIA-V176-Acro (human, UniProt P08637 17-208).
T5 construct: bought; Val at 176; also called Human Fc gamma RIIIA/CD16a (V176) Protein, His Tag
The experiment in a line: SPR (Biacore T200), antibody captured on protein A sensor chip, Fc receptor as analyte; analyte range 400nm-3.125nm.
Text: as §1

In another experiment the target is T6, FcγRIIA-H167-Acro (human, UniProt P12318 36-218, limits assumed).
T6 construct: bought; His at 167; also called Human Fc gamma RIIA/CD32a (H167) Protein, His Tag
T6 sequence (looked up): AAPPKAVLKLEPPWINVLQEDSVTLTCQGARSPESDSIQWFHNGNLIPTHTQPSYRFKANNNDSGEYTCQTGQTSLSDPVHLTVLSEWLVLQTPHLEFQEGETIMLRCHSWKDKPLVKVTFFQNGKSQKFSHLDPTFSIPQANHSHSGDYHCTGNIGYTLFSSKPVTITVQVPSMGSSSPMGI
The experiment in a line: SPR (Biacore T200), antibody captured on protein A sensor chip, Fc receptor as analyte; analyte range 800nm-6.25nm.
Text: as §1

Another experiment addresses T7, FcγRIIIB-NA1-Acro (human, UniProt O75015 17-200, limits assumed).
T7 construct: bought; also called Human Fc gamma RIIIB/CD16b (NA1) Protein, His Tag
Described as above.
Text: as §1

The target of experiment [4] is T4, FcRn. The experiment in a line: SPR Biacore T200; binder captured on protein A chip, Fc receptor as analyte. As to the method:
as §2

A further experiment addresses T8, TGFb1 (Homo sapiens (Human), UniProt P01137 279-390, Active TGF-beta-1 is a disulfide-linked homodimer of this chain; one copy is given.).
T8 construct: also called TGFb1 protein
The experiment in a line: SPR; binder as capture solution, TGFb1 as analyte.

For the next experiment, the target named is human CTLA4 (hCTLA4-His) (human, UniProt P16410 36-161, limits assumed). The experiment in a line: SPR Biacore T200; binder captured on protein A chip, target as analyte. On the procedure: Binding affinities of the fusion proteins against human CTLA4 (hCTLA4-His) or human PD-L1 (hPDL1) were measured by surface plasmon resonance (SPR) using Biacore™ T200 biosensor equipped with pre-immobilized protein A sensor chips. A CTLA4 antibody CT4-4G12-IgG1 (CT4) was used as a control. ATOR1015-CD86 (CD86) and KN035-IgG1 (with D265A mutation in heavy chain constant domain) were also used as controls.
Sequence of human CTLA4 (hCTLA4-His) (P16410 36-161 limits assumed): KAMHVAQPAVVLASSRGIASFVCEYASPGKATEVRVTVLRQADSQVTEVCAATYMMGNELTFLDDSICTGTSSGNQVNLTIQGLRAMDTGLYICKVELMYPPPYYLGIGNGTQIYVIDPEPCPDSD

T1 sequence (P12314 16-288 limits assumed): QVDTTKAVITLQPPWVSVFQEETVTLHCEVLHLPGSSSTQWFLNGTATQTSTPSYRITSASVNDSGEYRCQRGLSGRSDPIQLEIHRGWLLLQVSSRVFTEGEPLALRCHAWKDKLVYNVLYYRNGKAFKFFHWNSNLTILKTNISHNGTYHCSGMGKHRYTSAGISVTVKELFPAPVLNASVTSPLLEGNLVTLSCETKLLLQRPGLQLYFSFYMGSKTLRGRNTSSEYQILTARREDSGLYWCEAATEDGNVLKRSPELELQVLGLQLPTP
T8 sequence (P01137 279-390 limits assumed): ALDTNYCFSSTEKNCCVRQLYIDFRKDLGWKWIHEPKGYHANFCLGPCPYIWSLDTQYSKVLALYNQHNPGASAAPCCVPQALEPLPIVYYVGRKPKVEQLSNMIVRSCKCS
T4 sequence (P55899 24-297 limits assumed, chain 1 of 2): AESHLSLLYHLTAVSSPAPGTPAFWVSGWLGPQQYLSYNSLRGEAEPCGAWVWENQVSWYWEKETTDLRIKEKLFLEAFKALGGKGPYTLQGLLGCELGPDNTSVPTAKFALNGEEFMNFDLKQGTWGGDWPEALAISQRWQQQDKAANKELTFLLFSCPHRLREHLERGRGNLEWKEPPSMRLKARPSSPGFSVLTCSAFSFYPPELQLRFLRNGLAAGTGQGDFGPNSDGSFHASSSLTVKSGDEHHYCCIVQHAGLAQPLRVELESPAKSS
T4 sequence (P61769 21-119 limits assumed, chain 2 of 2): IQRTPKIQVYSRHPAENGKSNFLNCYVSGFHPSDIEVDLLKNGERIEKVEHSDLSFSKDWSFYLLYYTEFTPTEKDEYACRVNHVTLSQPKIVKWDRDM
T5 sequence (P08637 17-208 F176V limits assumed): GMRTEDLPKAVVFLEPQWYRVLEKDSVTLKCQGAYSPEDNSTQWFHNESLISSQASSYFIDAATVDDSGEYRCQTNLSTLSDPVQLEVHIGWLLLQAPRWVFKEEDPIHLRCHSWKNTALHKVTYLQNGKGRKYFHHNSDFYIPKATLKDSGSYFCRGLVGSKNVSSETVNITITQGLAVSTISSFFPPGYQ
T7 sequence (O75015 other isoform, or with tags, fused parts or gaps limits assumed): as the sequence (O75015 other isoform, or with tags, fused parts or gaps limits assumed) above

B1: PDL1-avelumab (antibody, human IgG1, lambda)
heavy: not shown
light: QSALTQPASVSGSPGQSITISCTGTSSDVGGYNYVSWYQQHPGKAPKLMIYDVSNRPSGVSNRFSGSKSGNTASLTISGLQAEDEADYYCSSYTSSSTRVFGTGTKVTVLGQPKANPTVTLFPPSSEELQANKATLVCLISDFYPGAVTVAWKADGSPVKAGVETTKPSKQSNNKYAASSYLSLTPEQWKSHRSYSCQVTHEGSTVEKTVAPTECS
notes: IgG1; also called anti-PD-L1 IgG1 antibody; PD-L1 antibody
The term Kd denotes the concentration at which binding is half-saturated. A lower Kd goes with a tighter complex. As to B1, the Kd in the experiment with FcγRI-Sino [1] is 101 nM; with FcγRI-Sino [2], 6.52 nM; with FcγRIIIB-Sino, 1210 nM; in the experiment with FcγRIIA-R167-Sino it was 692 nM; in the experiment with FcRn [3] it was 1250 nM; with FcγRIIIA-V176-Acro, 263 nM. For the same molecule, the Kd worked out at 1050 nM with FcγRIIA-H167-Acro and 33100 nM in the experiment with FcγRIIIB-NA1-Acro.

B2: PDL1-mIL7-3A-mIFNa4 (antibody, human IgG1, lambda)
heavy: EVQLLESGGGLVQPGGSLRLSCAASGFTFSSYIMMWVRQAPGKGLEWVSSIYPSGGITFYADTVKGRFTISRDNSKNTLYLQMNSLRAEDTAVYYCARIKLGTVTTVDYWGQGTLVTVSSASTKGPSVFPLAPSSKSTSGGTAALGCLVKDYFPEPVTVSWNSGALTSGVHTFPAVLQSSGLYSLSSVVTVPSSSLGTQTYICNVNHKPSNTKVDKKVEPKSCDKTHTCPPCPAPELLGGPSVFLFPPKPKDTLMISRTPEVTCVVVDVSHEDPEVKFNWYVDGVEVHNAKTKPREEQYNSTYRVVSVLTVLHQDWLNGKEYKCKVSNKALPAPIEKTISKAKGQPREPQVYTLPPSRDEGGGGSGGGGSECHIKDKEGKAYESVLMISIDELDKMTGTDSNCPNNEPNFFRKHVCDDTKEAAFLNRAARKLKQFLKMNISEEFNVHLLTVSQGTQTLVNCTSKEEKNVKEQKKNDACFLKRLLREIKTCWNKILKGSIGGGGSGGGGSVSLTCLVKGFYPSDIAVEWESNGQPENNYKTTPPVLDSDGSFFLYSKLTVDKSRWQQGNVFSCSVMHEALHNHYTQKSLSLSPGAGGGGSGGGGSGGGGSGGGGSCDLPHTYNLGNKRALTVLEEMRRLPPLSCLKDRKDFGFPLEKVDNQQIQKAQAILVLRDLTQQILNLFTSKDLSATWNATLLDSFCNDLHQQLNDLKACVMQEPPLTQEDSLLAVRTYFHRITVYLRKKKHSLCAWEVIRAEVWRALSSSTNLLARLSEEKE
light: QSALTQPASVSGSPGQSITISCTGTSSDVGGYNYVSWYQQHPGKAPKLMIYDVSNRPSGVSNRFSGSKSGNTASLTISGLQAEDEADYYCSSYTSSSTRVFGTGTKVTVLGQPKANPTVTLFPPSSEELQANKATLVCLISDFYPGAVTVAWKADGSPVKAGVETTKPSKQSNNKYAASSYLSLTPEQWKSHRSYSCQVTHEGSTVEKTVAPTECS
notes: 3A-HC format: mIL7 at the 3A site, mIFNa4 at the heavy chain C-terminus through a linker
For the molecule B2, the Kd with FcγRI-Sino [1] was 27.1 nM; with FcRn [3], 160 nM; in the experiment with FcγRIIIA-V176-Acro, 17.3 nM; with FcγRIIA-H167-Acro it was 115 nM; with FcγRIIIB-NA1-Acro, 501 nM.

B3: PDL1-TGFbR2-3A (antibody)
heavy: EVQLLESGGGLVQPGGSLRLSCAASGFTFSSYIMMWVRQAPGKGLEWVSSIYPSGGITFYADTVKGRFTISRDNSKNTLYLQMNSLRAEDTAVYYCARIKLGTVTTVDYWGQGTLVTVSSASTKGPSVFPLAPSSKSTSGGTAALGCLVKDYFPEPVTVSWNSGALTSGVHTFPAVLQSSGLYSLSSVVTVPSSSLGTQTYICNVNHKPSNTKVDKKVEPKSCDKTHTCPPCPAPELLGGPSVFLFPPKPKDTLMISRTPEVTCVVVDVSHEDPEVKFNWYVDGVEVHNAKTKPREEQYNSTYRVVSVLTVLHQDWLNGKEYKCKVSNKALPAPIEKTISKAKGQPREPQVYTLPPSRDEGGGGSGGGGSIPPHVQKSVNNDMIVTDNNGAVKFPQLCKFCDVRFSTCDNQKSCMSNCSITSICEKPQEVCVAVWRKNDENITLETVCHDPKLPYHDFILEDAASPKCIMKEKKKPGETFFMCSCSSDECNDNIIFSEEYNTSNPDGGGGSGGGGSVSLTCLVKGFYPSDIAVEWESNGQPENNYKTTPPVLDSDGSFFLYSKLTVDKSRWQQGNVFSCSVMHEALHNHYTQKSLSLSPGK
light: QSALTQPASVSGSPGQSITISCTGTSSDVGGYNYVSWYQQHPGKAPKLMIYDVSNRPSGVSNRFSGSKSGNTASLTISGLQAEDEADYYCSSYTSSSTRVFGTGTKVTVLGQPKANPTVTLFPPSSEELQANKATLVCLISDFYPGAVTVAWKADGSPVKAGVETTKPSKQSNNKYAASSYLSLTPEQWKSHRSYSCQVTHEGSTVEKTVAPTECS
notes: IgG1; also called PDL1-TGFbR2-3A (IgG1); PDL1-TGFbR2-3A-IgG1
The koff is the first-order rate constant of dissociation. As usually defined, the kon is the second-order rate constant of association. Higher therefore signals fast association. For B3, the Kd is 14.5 nM with FcγRI-Sino [2]; 1330 nM with FcγRIIIB-Sino; 19.4 nM with FcRn [4]; 844 nM with FcγRIIA-R167-Sino; 37.3 nM with TGFb1. The molecule also gave a koff with TGFb1 of 0.00573 s⁻¹. The kon with TGFb1 came to 154000 M⁻¹ s⁻¹.

B4: PDL1-TGFbR2-3A-IgG4 (antibody)
heavy: EVQLLESGGGLVQPGGSLRLSCAASGFTFSSYIMMWVRQAPGKGLEWVSSIYPSGGITFYADTVKGRFTISRDNSKNTLYLQMNSLRAEDTAVYYCARIKLGTVTTVDYWGQGTLVTVSSASTKGPSVFPLAPCSRSTSESTAALGCLVKDYFPEPVTVSWNSGALTSGVHTFPAVLQSSGLYSLSSVVTVPSSSLGTKTYTCNVDHKPSNTKVDKRVESKYGPPCPPCPAPEFLGGPSVFLFPPKPKDTLMISRTPEVTCVVVDVSQEDPEVQFNWYVDGVEVHNAKTKPREEQFNSTYRVVSVLTVLHQDWLNGKEYKCKVSNKGLPSSIEKTISKAKGQPREPQVYTLPPSQEEGGGGSGGGGSIPPHVQKSVNNDMIVTDNNGAVKFPQLCKFCDVRFSTCDNQKSCMSNCSITSICEKPQEVCVAVWRKNDENITLETVCHDPKLPYHDFILEDAASPKCIMKEKKKPGETFFMCSCSSDECNDNIIFSEEYNTSNPDGGGGSGGGGSVSLTCLVKGFYPSDIAVEWESNGQPENNYKTTPPVLDSDGSFFLYSRLTVDKSRWQEGNVFSCSVMHEALHNHYTQKSLSLSLGK
light: QSALTQPASVSGSPGQSITISCTGTSSDVGGYNYVSWYQQHPGKAPKLMIYDVSNRPSGVSNRFSGSKSGNTASLTISGLQAEDEADYYCSSYTSSSTRVFGTGTKVTVLGQPKANPTVTLFPPSSEELQANKATLVCLISDFYPGAVTVAWKADGSPVKAGVETTKPSKQSNNKYAASSYLSLTPEQWKSHRSYSCQVTHEGSTVEKTVAPTECS
notes: IgG4 subtype of PDL1-TGFbR2-3A
B4: the Kd with FcγRI-Sino [2] came to 273 nM; in the experiment with FcγRIIIB-Sino, 576 nM; with FcRn [4], 214 nM; with FcγRIIA-R167-Sino it was 1780 nM.

B5: CT4-4G12-IgG1 (antibody)
heavy: not shown
light: DIQMTQSPSFLSASVGDRVTITCRAGENIYSYLAWYQQKPGKAPKLLIYNARTLAEGVPSRFSGSGSGTEFTLTISSLQPEDFATYYCQHHYGSPRTFGGGTKLEIKRTVAAPSVFIFPPSDEQLKSGTASVVCLLNNFYPREAKVQWKVDNALQSGNSQESVTEQDSKDSTYSLSSTLTLSKADYEKHKVYACEVTHQGLSSPVTKSFNRGEC
notes: IgG1; also called humanized CTLA4 antibody
In the experiment with human CTLA4 (hCTLA4-His), B5 showed a Kd of 5.91 nM, a koff of 0.00151 s⁻¹ and a kon of 256000 M⁻¹ s⁻¹. This molecule gave a Kd with FcRn [4] of 126 nM.
